Reference: article doi:10.1101/2020.01.12.903617, “The peptide sensor motif stabilizes the outward-facing conformation of TmrAB” (bioRxiv, 2020)
Residue numbers refer to the chain shown, from its start. No end group written: not given here. fluorescein = fluorescein label attached to the Cys side chain

How the values were obtained:
TmrAB G131A^TmrA = target: T1, TmrAB G131A^TmrA (Thermus thermophilus, UniProt Q72J05 1-600; Q72J04 1-578, G131A); test: fluorescence polarisation; 1.7 uM TmrAB with 50 nM RRY(C^Fluorescein)KSTEL in SEC buffer (20 mM HEPES, 150 mM NaCl, pH 7, 0.05% ß-DDM), 15 minutes on ice, in the absence or presence of 5 mM ATP and 10 mM MgCl2; read at 25°C (the results say 4°C); signal normalized to WT without ATP; conditions: both partners purified
T1 construct: TmrA, Thermus thermophilus, the chain of TmrAB with the canonical Walker B motif; TmrB, Thermus thermophilus, the chain of TmrAB with the non-canonical Walker B motif; also called G131A^TmrA variant; source: cultured at room temperature for 16 hours after induction
T1 sequence 1: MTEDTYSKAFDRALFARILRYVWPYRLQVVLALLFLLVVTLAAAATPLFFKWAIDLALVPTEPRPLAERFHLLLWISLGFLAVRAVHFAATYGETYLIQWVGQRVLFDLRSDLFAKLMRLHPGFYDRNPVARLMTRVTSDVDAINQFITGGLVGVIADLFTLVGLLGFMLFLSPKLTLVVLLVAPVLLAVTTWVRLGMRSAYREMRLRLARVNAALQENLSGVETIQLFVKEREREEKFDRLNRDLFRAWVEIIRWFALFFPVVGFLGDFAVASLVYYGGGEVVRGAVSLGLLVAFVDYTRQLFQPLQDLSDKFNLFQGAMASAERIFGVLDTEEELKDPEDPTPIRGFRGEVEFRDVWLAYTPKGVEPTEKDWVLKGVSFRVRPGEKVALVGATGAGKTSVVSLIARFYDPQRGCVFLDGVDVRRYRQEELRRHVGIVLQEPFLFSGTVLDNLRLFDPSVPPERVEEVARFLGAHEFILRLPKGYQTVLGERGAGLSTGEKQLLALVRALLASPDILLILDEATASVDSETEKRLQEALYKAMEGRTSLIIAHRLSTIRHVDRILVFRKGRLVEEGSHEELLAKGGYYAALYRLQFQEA
T1 sequence 2: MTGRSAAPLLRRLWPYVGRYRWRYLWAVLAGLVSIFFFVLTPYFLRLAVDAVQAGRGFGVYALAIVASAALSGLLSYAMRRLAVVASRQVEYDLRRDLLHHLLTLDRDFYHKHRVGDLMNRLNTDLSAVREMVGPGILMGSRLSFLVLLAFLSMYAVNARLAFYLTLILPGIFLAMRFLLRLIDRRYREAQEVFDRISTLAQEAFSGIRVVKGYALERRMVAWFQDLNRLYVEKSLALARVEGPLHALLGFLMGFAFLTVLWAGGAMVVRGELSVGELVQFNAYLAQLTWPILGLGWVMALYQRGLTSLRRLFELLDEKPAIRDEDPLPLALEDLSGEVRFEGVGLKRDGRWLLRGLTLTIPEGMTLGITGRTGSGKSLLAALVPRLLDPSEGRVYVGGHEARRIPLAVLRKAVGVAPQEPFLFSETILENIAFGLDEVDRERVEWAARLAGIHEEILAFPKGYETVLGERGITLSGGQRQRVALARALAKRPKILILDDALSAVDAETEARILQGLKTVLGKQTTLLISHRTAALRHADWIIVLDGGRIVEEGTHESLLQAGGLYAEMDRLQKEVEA

[1] = target: T2, WT TmrAB, heterodimeric peptide exporter from Thermus thermophilus (Thermus thermophilus, UniProt Q72J05 1-600; Q72J04 1-578); test: as above; conditions: both partners purified
T2 construct: TmrA, Thermus thermophilus, the chain of TmrAB with the canonical Walker B motif; TmrB, Thermus thermophilus, the chain of TmrAB with the non-canonical Walker B motif; TmrAB template in pet22b; also called wild-type TmrAB
T2 sequence 1: T1 sequence 1 with A131G
T2 sequence 2: T1 sequence 2

B1: fluorescent transport substrate peptide RRY(C^Fluorescein)KSTEL (peptide)
peptide: RRYC(fluorescein)KSTEL
notes: fluorescein-labelled transport substrate peptide of TmrAB; also called fluorescently-labeled peptide substrate; peptide substrate; source: bought: Genscript
binding result (TmrAB G131A^TmrA): binds
binding result [1]: binds
